Results as given in patent publication US20100234274A1, “Use of Nestafin-1 in the Treatment for Diabetes” (priority 2009, published 2010).

Tests used:
[1] = target: T1, recombinant nesfatin-1 (UniProt P81117)
T1 sequence: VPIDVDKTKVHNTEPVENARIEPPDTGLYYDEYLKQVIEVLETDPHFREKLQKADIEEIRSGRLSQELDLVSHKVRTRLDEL

[2] = system: db/db mice; assay: i.v. injection of plasmin inhibitors in db/db mice (serum nesfatin-1, food intake, body weight); type: in vivo, mouse; settings: for circulating nesfatin-1: serum at 30 minutes
Method: Lower nesfatin-1 in “saline” than “ff db/db” (FIG. 3b) was due to blood dilution after injection. (b) Reduction in body weight after a 3-day i.v. AMCA (15 mg/day); (c) Food intake at day 3 during a 3-day i.v. AMCA (15 mg/day).
Hypothalamus in acetic acid supplemented with protease inhibitor cocktail tablets (Roche, Indianapolis, Ind.) was homogenized, sonicated and heated at 95° C. for 15 minutes. The samples were then centrifuged at 13,200 rpm at 4° C. for 30 minutes. The supernatants were finally collected as their protein contents were determined by the Bradford assay (Thermo-Fisher Sci. Rockford, Ill.). Mouse serum was freshly prepared by drawing blood through ophthalmectomy. About […] hypothalamic total proteins or 25 μL serum were analyzed with Waters Delta 600E/2487/717 HPLC system using an analytical C18 reverse phase column (4.6×250 mm/5 μm, Hambon, Zhangjiagang, Conn.). Nesfatin-1 was eluted with a linear gradient from 20%-40% solvent B (solvent A: water with 0.1% trifluoroacetic acid, solvent B: acetonitrile with 0.1% trifluoroacetic acid) for 20 minutes at the flow rate of iml/minute. The purified nesfatin-1 was used as the standard to determine the retention time and plot the standard curve. The fraction collected at the retention time was sent for the mass spectrometry analysis.
It is unknown how nesfatin-1 is cleared from circulation. The tiny amount of plasmin generation in periphery was previously reported and confirmed in our study (data not shown). AMCA and aprotinin, two inhibitors of plasmin, was i.v. injected to db/db. The reduction in food intake and body weight was seen while circulating nesfatin-1 was increased (FIG. 8). […] Therefore, peripheral nesfatin-1 was believed at least partially to be degraded by plasmin.

[3] = system: db/db mice; assay: Inhibitor pre-treatment before i.v. nesfatin-1 in db/db mice, blood glucose; type: in vivo, mouse; settings: blood glucose in 6 hours
Method: GW9662, a PPAR-gamma irreversible inhibitor, was i.v. injected into the tail vein of db/db mice at the dose of 0.45 μg per gram body weight. After 30 minutes, 100 ug Nesfatin-1 was injected into the tail vein of db/db mice. Blood glucose was measured in 6 hours.
Compound C, a 5′-AMP-activated protein kinase (AMPK) specific inhibitor, was intraperitoneally injected to db/db mice at the dose of 20 mg per kg body weight. Subsequently, 100 ug Nesfatin-1 was injected into the tail vein of db/db mice. Blood glucose was measured in 6 hours.

[4] = target: plasmin (Homo sapiens, UniProt P00747); assay: Incubation of recombinant nesfatin-1 with plasmin; type: biochemical
Method: Arrows indicated the putative cleavage sites by plasmin. (b) Nesfatin-1 was completely digested by plasmin within 2 hours.
The recovery of hypothalamic nesfatin-1 in plg^−/−lepr^−/− was consistent to its normalization in food intake and body weight (FIG. 2ac). Fasted mice always had less nesfatin-1 in hypothalamus than their freely feeding counterparties (FIG. 5b). Furthermore, plasminogen deficiency provided a unique approach to study the chronic effect of elevated nesfatin-1 in hyperphagic obese animals, which was impossible for the i.c.v. or i.p. administration due to the short half-time of nesfatin-1. Consequently, agrp and npy were found reduced in plg^−/−lepr^−/−, while pomc was elevated compared with plg^+/+lepr^−/− (FIG. 6), contradicting to the previous report that i.c.v. nesfatin-1 didn't alter the expression of pomc, npy and agrp. Consistent to the present finding, the same group reported the up-regulation of pomc by i.p. nesfatin-1 in NTS recently.

[5] = system: Streptozotocin-induced type-I diabetic C57BL/6J mice; assay: Streptozotocin-induced type-I diabetic mice, blood glucose; type: in vivo; settings: 100 μg/mouse i.v. alone or combined with s.c. insulin (2 ng/mouse)
Method: (§1) Amazingly as described above, the diabetic symptoms of db/db mice were essentially eliminated in plg^−/−lepr^−/−, which couldn't be possibly explained by the anorexigenic effect of nesfatin-1.
Male C57BL/6J mice (10 weeks) were given intraperitoneal injections of Streptozotocin (STZ) in sodium citrate (pH 4.5) on two consecutive days (100 mg/kg/day). Blood glucose was measured by tail vein sampling using the glucose oxidase enzymatic test. Diabetes was defined as a morning blood glucose reading of >16 mM after STZ. When blood glucose levels exceeded 30 mM, diabetic mice were given 16 ng of porcine insulin (Wangbang, Xuzhou, Conn.) every second day to prevent weight loss while maintaining blood glucose levels within the hyperglycemic range (16-30 mM). Nesfatin-1 (100 μg/mouse) was i.v. injected either alone or combined with s.c. insulin (2 ng/mouse) to STZ-induced type-I diabetic mice.

[6] = i.c.v. or i.p. injection; cited from earlier work
[7] = system: db/db mice; assay: Blood glucose after i.v. nesfatin-1 in db/db mice; type: in vivo, mouse
[8] = system: ob/ob mice; assay: Blood lipid analysis after i.v. nesfatin-1 in ob/ob mice; type: in vivo, mouse; settings: 100 ug tail vein, 3 hours after injection
Method: One hundred ug Nesfatin-1 was injected into the tail vein of ob/ob mice. Blood samples were taken 3 hours after the injection for lipid analysis.

[9] = both directions, nonsaturable system; cited from earlier work
[10] = Clearance of i.v. nesfatin-1 from circulation; type: in vivo, mouse
[11] = system: rats; settings: cited from earlier work
[12] = system: wild-type mice; assay: Intraperitoneal glucose tolerance test (IGTT) in wild-type mice; type: in vivo, mouse; settings: 100 μg nesfatin-1, i.v. injection of 1.5 g/kg glucose
Method: Mice of the investigated genotype (plg^+/+lepr^−/−, plg^−/−lepr^−/−, plg^+/+lepr^+/+, plg^−/−lepr^+/+) were fasted for 18 hours at 8, 16 and 24 weeks old, before blood sampling from tail veins to measure fasting blood glucose using a glucose meter (Accu-Chek, Roche). Mice serum insulin was measured at the age of 12 weeks by ELISA (ALPCO, Salem, N.H.). IGTT was performed previously. As briefly, 12-week old mice were placed in clean cages without food at 4 pm on the day prior to the experiment. […] Blood glucose was measured immediately before and at 10, 20, 30, 60, 90, 120, and 180 minutes after the injection of glucose.
as §1

[13] = system: rats; settings: injected directly into the brain of rats; cited from earlier work

Sequence of plasmin (P00747 97-810, species assumed): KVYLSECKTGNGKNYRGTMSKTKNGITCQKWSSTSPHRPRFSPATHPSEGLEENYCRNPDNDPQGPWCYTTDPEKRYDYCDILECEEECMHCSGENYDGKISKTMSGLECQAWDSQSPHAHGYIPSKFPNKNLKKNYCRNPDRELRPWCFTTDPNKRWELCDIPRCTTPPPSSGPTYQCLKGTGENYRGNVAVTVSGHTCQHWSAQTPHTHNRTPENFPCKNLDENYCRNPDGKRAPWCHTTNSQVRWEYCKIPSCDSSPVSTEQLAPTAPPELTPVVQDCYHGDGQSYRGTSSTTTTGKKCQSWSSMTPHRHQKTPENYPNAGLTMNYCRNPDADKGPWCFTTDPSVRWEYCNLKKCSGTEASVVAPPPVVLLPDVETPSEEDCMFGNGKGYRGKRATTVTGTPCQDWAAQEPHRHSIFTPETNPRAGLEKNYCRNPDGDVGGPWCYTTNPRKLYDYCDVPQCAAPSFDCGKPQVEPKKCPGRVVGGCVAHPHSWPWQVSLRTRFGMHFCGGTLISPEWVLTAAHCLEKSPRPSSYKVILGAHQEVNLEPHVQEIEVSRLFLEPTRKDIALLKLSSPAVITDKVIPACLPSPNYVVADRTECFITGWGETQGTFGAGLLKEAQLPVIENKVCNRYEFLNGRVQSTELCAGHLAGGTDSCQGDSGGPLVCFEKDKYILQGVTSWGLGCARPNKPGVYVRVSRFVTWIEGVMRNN
Sequence of plasmin (P00747 97-580 partner limits assumed, species assumed): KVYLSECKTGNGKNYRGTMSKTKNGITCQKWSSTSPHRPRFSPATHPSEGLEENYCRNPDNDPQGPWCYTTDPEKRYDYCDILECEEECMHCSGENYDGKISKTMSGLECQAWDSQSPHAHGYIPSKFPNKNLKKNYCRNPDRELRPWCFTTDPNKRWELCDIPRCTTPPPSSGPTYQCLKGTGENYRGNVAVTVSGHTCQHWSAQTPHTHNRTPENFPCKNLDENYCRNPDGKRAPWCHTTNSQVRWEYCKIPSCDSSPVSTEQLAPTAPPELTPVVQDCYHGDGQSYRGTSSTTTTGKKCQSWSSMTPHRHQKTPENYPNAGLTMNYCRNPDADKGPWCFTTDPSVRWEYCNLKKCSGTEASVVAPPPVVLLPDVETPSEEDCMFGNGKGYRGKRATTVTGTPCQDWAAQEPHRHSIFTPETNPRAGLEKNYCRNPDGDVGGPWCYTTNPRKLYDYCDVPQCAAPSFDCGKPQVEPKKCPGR

Q: With plasmin as the molecule, how does the “degradation of recombinant nesfatin-1 on incubation with plasmin” value [1] read?
A: It was then incubated with plasmin and rapidly degraded as expected

Q: And the “digestion of nesfatin-1 by plasmin (in vitro incubation)” value [1]?
A: Nesfatin-1 was completely digested by plasmin within 2 hours

Q: Which results are given for aprotinin?
A: body weight [2]: reduction; food intake [2]: reduction; circulating nesfatin-1 [2]: increased

Q: With `NC[C@H]1CC[C@H](C(=O)O)CC1` [AMCA, tranexamic acid] as the molecule, how does the body weight [2] read?
A: reduction

Q: What about the food intake [2] of the same molecule?
A: reduction

Q: And the “circulating nesfatin-1” value [2]?
A: increased

Q: Which “inhibition of the anti-diabetic effect of nesfatin-1” value ([3]; 20 mg per kg body weight intraperitoneally before 100 ug nesfatin-1) does the source give for `c1cc(-c2cnn3cc(-c4ccc(OCCN5CCCCC5)cc4)cnc23)ccn1` [Compound C] here?
A: fully inhibited

Q: With `O=C(Nc1ccccc1)c1cc([N+](=O)[O-])ccc1Cl` [GW9662] as the molecule, how does the “inhibition of the anti-diabetic effect of nesfatin-1” value ([3]; 0.45 μg per gram body weight i.v., 30 minutes before 100 ug nesfatin-1) read?
A: fully inhibited

B1: nesfatin-1: recombinant nesfatin-1 expressed and purified from genetically engineered E. coli; secreted N-terminus fragment of NUCB2 (protein)
peptide: VPIDVDKTKVHNTEPVENARIEPPDTGLYYDEYLKQVIEVLETDPHFREKLQKADIEEIRSGRLSQELDLVSHKVRTRLDEL
Q: What does the source list for B1?
A: time to complete digestion by plasmin ([4]; FIG. 4b): ≤ 2 h; degradation on incubation with plasmin ([4]; recombinant nesfatin-1 from E. coli): rapidly degraded; blood glucose [5]: decreased only when nesfatin-1 was injected with s.c. insulin; body weight [6]: reduces body weight; food intake [6]: inhibits food intake; blood glucose ([7]; 100 μg i.v., freely fed db/db): significantly reduced; diabetic improvement ([7]; i.c.v. injection, db/db, data not shown): little diabetic improvement; duration of anti-diabetic effect ([7]; i.v.): > 6 h; dose and time dependence of anti-diabetic effect ([7]; i.v., FIG. 7d, e): dose- and time-dependent; HDL in blood [8]: unaffected; LDL in blood [8]: significantly reduced; total cholesterol in blood [8]: significantly reduced; triglyceride in blood [8]: significantly reduced; blood brain barrier crossing [9]: crosses the Blood Brain Barrier (BBB); clearance in plg−/− versus plg+/+ ([10]; i.v., data not shown): cleared much slower; half-life in circulation ([10]; mouse, in vivo): 10 min; neuropsychological effect [11]: increasing anxiety and fear-related behaviors; uptake of blood sugar during IGTT [12]: significantly enhanced the uptake of blood sugar

B2: NUCB2: hypothalamus-secreted protein containing 396 amino acids, precursor of nesfatin-1 (protein, UniProt P80303 25-420, looked up)
Nucleobindin-2: VPIDIDKTKVQNIHPVESAKIEPPDTGLYYDEYLKQVIDVLETDKHFREKLQKADIEEIKSGRLSKELDLVSHHVRTKLDELKRQEVGRLRMLIKAKLDSLQDIGMDHQALLKQFDHLNHLNPDKFESTDLDMLIKAATSDLEHYDKTRHEEFKKYEMMKEHERREYLKTLNEEKRKEEESKFEEMKKKHENHPKVNHPGSKDQLKEVWEETDGLDPNDFDPKTFFKLHDVNSDGFLDEQELEALFTKELEKVYDPKNEEDDMVEMEEERLRMREHVMNEVDTNKDRLVTLEEFLKATEKKEFLEPDSWETLDQQQFFTEEELKEYENIIALQENELKKKADELQKQKEELQRQHDQLEAQKLEYHQVIQQMEQKKLQQGIPPSGPAGELKFEPHI
Q: With B2 as the molecule, how does the body weight [13] read?
A: decreases body weight

Q: What about the feeding [13] of the same molecule?
A: promotes anorexia
